Results from paper PMC10656745 (ACS synthetic biology, 2022).

Target: the molecule itself
Assay: native gel or EMSA

B1: wild-type GstA (glutathione S-transferase, PP_1162) of Pseudomonas putida KT2440 (enzyme, UniProt Q88NP5 1-209, looked up)
chain: MSNPIKLYNFPKSGHAHRIELMLSLLNLPTELVFVDLAKGAHKQPDFLALNPFGQVPVIDDNGTVIADSNAILVYLAKKYDNGTWLPEEPAAAARVQRWLSVAAGPLAFGPAAARLVTVFGASFNTDEVISRAHTLLKVIDAELANTPFLTGSTPTIADIANYSYIAHAPEGNVSLEPYANVRNWLARIEALPRFVPMPRTVIGLQTHA
stoichiometry N: 2
